1 protein from article PMC8189185 (Structure (London, England : 1993), 2017) can be followed below.

This data set concerns the molecule itself. Briefly: cryo-EM structure.

B1: PilA, major pilin subunit of the Pseudomonas aeruginosa strain K (PaK) Type IV pilus (natural protein)
chain: FTLIELMIVVAIIGILAAIAIPQYQNYVARSEGASALASVNPLKTTVEEALSRGWSVKSGTGTEDATKKEVPLGVAADANKLGTIALKPDPADGTADITLTFTMGGAGPKNKGKIITLTRTAADGLWKCTSDQDEQFIPKGCSR
In the case of B1, the binding result is given as “binds”.
